Key:
[1] = target: NT-495-labeled Arl1^GTP, P40616; experiment: fluorescence anisotropy; details: chain shown with the change;; parent: 26 ± 5
[2] = target: NT-495-labeled Arl1^GTP (human) (UniProt P40616); experiment: fluorescence polarisation; fluorescence anisotropy, NT-495-labeled Arl1 titrated with DCB variants, 20°C, 50 mM Tris-HCl pH 8.0, 110 mM KCl, 1 mM DTT, 5 mM MgCl2, 0.001% Triton X-100, 0.1% Tween-20, 5 μM GTP; single-site (1:1) model

Chain of NT-495-labeled Arl1^GTP, P40616 (P40616 15-181 Q71L): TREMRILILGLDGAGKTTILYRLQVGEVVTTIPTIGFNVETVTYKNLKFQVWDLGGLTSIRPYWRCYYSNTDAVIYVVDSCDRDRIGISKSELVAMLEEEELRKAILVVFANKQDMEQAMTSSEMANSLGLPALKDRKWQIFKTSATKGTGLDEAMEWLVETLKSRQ

Kd [1] | fold increase of Kd against wild type [2] | Binder | further results
140 µM | – | His6-DCB^BIG1 (human BIG1 residues 1–228), Q9Y6D6 Q200E (protein) MYEGKKTKNMFLTRALEKILADKEVKKAHHSQLRKACEVALEEIKAETEKQSPPHGEAKAGSSTLPPVKSKTNFIEADKYFLPFELACQSKCPRIVSTSLDCLQKLIAYGHLTGNAPDSTTPGKKLIDRIIETICGCFQGPQTDEGVQLQIIKALLTAVTSQHIEIHEGTVLQAVRTCYNIYLASKNLINQTTAKATLTEMLNVIFARMENQALQEAKQMEKERHRQH | –
– | > 5 fold | His6-DCB^BIG1 Lys105Asp (domain or fragment) MYEGKKTKNMFLTRALEKILADKEVKKAHHSQLRKACEVALEEIKAETEKQSPPHGEAKAGSSTLPPVKSKTNFIEADKYFLPFELACQSKCPRIVSTSLDCLQDLIAYGHLTGNAPDSTTPGKKLIDRIIETICGCFQGPQTDEGVQLQIIKALLTAVTSQHIEIHEGTVLQAVRTCYNIYLASKNLINQTTAKATLTQMLNVIFARMENQALQEAKQMEKERHRQH | –
– | > 5 fold | His6-DCB^BIG1 Gln200Glu (domain or fragment) MYEGKKTKNMFLTRALEKILADKEVKKAHHSQLRKACEVALEEIKAETEKQSPPHGEAKAGSSTLPPVKSKTNFIEADKYFLPFELACQSKCPRIVSTSLDCLQKLIAYGHLTGNAPDSTTPGKKLIDRIIETICGCFQGPQTDEGVQLQIIKALLTAVTSQHIEIHEGTVLQAVRTCYNIYLASKNLINQTTAKATLTEMLNVIFARMENQALQEAKQMEKERHRQH | –

More lines, now with the values behind:

Binder | Kd [1] | fold increase of Kd against wild type [2] | further results
His6-DCB^BIG1 (human BIG1 residues 1–228), Q9Y6D6 L156D (protein) MYEGKKTKNMFLTRALEKILADKEVKKAHHSQLRKACEVALEEIKAETEKQSPPHGEAKAGSSTLPPVKSKTNFIEADKYFLPFELACQSKCPRIVSTSLDCLQKLIAYGHLTGNAPDSTTPGKKLIDRIIETICGCFQGPQTDEGVQLQIIKALDTAVTSQHIEIHEGTVLQAVRTCYNIYLASKNLINQTTAKATLTQMLNVIFARMENQALQEAKQMEKERHRQH | 86 µM | – | –
His6-DCB^BIG1 (human BIG1 residues 1–228) (domain or fragment) MYEGKKTKNMFLTRALEKILADKEVKKAHHSQLRKACEVALEEIKAETEKQSPPHGEAKAGSSTLPPVKSKTNFIEADKYFLPFELACQSKCPRIVSTSLDCLQKLIAYGHLTGNAPDSTTPGKKLIDRIIETICGCFQGPQTDEGVQLQIIKALLTAVTSQHIEIHEGTVLQAVRTCYNIYLASKNLINQTTAKATLTQMLNVIFARMENQALQEAKQMEKERHRQH | – | – | Kd [2]: 26 µM
His6-DCB^BIG1 (human BIG1 residues 1–228), Q9Y6D6 K105D (protein) MYEGKKTKNMFLTRALEKILADKEVKKAHHSQLRKACEVALEEIKAETEKQSPPHGEAKAGSSTLPPVKSKTNFIEADKYFLPFELACQSKCPRIVSTSLDCLQDLIAYGHLTGNAPDSTTPGKKLIDRIIETICGCFQGPQTDEGVQLQIIKALLTAVTSQHIEIHEGTVLQAVRTCYNIYLASKNLINQTTAKATLTQMLNVIFARMENQALQEAKQMEKERHRQH | 110 µM | – | –
